The sequences below were run on Escherichia coli TOP10 (assay: shrunken log2 fold change of peptide-encoding DNA abundance (4.5 h post-induction vs induction); higher = less antimicrobial activity (less host growth inhibition)). Conditions: time post-induction: 4.5 h; library: site-saturation at positions 5, 18, 19, 20.
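Also: peptides expressed intracellularly from a pBAD plasmid library in pooled LB shake-flask culture, induced with 0.3% L-arabinose, DNA abundance read by NGS, three biological replicates, DESeq2 with apeglm shrinkage.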

First: RRIRLRPPRLPRPRPRPVEKPRP
Second: RRIRDRPPRLPRPRPRPLYTPRP
The “shrunken log2 fold change” value of the first is higher: 0.0244 for the first, -0.181 for the second.

RRIRERPPRLPRPRPRPEPVPRP and RRIRDRPPRLPRPRPRPFGAPRP are within 0.2 log units of each other in “shrunken log2 fold change” value: -0.00161 for the first, 0.191 for the second.

First: RRIRKRPPRLPRPRPRPLAIPRP
Second: RRIRVRPPRLPRPRPRPTDIPRP
The “shrunken log2 fold change” value of the first is higher: 0.0828 for the first, -0.402 for the second.

RRIRARPPRLPRPRPRPYATPRP and RRIRPRPPRLPRPRPRPGDSPRP are within 0.2 log units of each other in “shrunken log2 fold change” value: 0.0217 for the first, 0.035 for the second.

Going from RRIRWRPPRLPRPRPRPWCQPRP to RRIRPRPPRLPRPRPRPSNSPRP, the “shrunken log2 fold change” value falls from 0.121 to -0.794.

RRIRYRPPRLPRPRPRPMIMPRP and RRIRPRPPRLPRPRPRPLKCPRP are within 0.2 log units of each other in “shrunken log2 fold change” value: -0.0957 for the first, -0.131 for the second.

RRIRKRPPRLPRPRPRPECNPRP and RRIRMRPPRLPRPRPRPLIGPRP are within 0.2 log units of each other in “shrunken log2 fold change” value: 0.0503 for the first, -0.0325 for the second.

RRIRKRPPRLPRPRPRPSEIPRP and RRIRARPPRLPRPRPRPMQAPRP are within 0.2 log units of each other in “shrunken log2 fold change” value: 0.157 for the first, -0.00917 for the second.

Going from RRIRGRPPRLPRPRPRPCKSPRP to RRIRCRPPRLPRPRPRPMAFPRP, the “shrunken log2 fold change” value falls from -0.00288 to -0.22.

Compared with RRIRVRPPRLPRPRPRPIIEPRP, RRIRIRPPRLPRPRPRPHARPRP is higher in “shrunken log2 fold change” value: -0.087 for the first, 3.76 for the second.

RRIRMRPPRLPRPRPRPIHLPRP and RRIRARPPRLPRPRPRPCPLPRP are within 0.2 log units of each other in “shrunken log2 fold change” value: -0.209 for the first, -0.132 for the second.

Compared with RRIRIRPPRLPRPRPRPNVTPRP, RRIRFRPPRLPRPRPRPDEDPRP is higher in “shrunken log2 fold change” value: -0.149 for the first, 0.181 for the second.

Going from RRIRVRPPRLPRPRPRPPKVPRP to RRIRDRPPRLPRPRPRPEWYPRP, the “shrunken log2 fold change” value falls from 0.392 to 0.0233.

RRIRMRPPRLPRPRPRPYHRPRP and RRIRYRPPRLPRPRPRPLMSPRP are within 0.2 log units of each other in “shrunken log2 fold change” value: -0.141 for the first, -0.0164 for the second.

Going from RRIRNRPPRLPRPRPRPHFWPRP to RRIRYRPPRLPRPRPRPLDNPRP, the “shrunken log2 fold change” value rises from -0.285 to -0.0671.

First: RRIRDRPPRLPRPRPRPIRYPRP
Second: RRIRMRPPRLPRPRPRPEKMPRP
The “shrunken log2 fold change” value of the first is lower: -0.103 for the first, 1.68 for the second.

Going from RRIRKRPPRLPRPRPRPRQQPRP to RRIRKRPPRLPRPRPRPKHDPRP, the “shrunken log2 fold change” value falls from 0.395 to 0.133.

Compared with RRIRRRPPRLPRPRPRPRFKPRP, RRIRKRPPRLPRPRPRPYDCPRP is lower in “shrunken log2 fold change” value: 0.0822 for the first, -0.171 for the second.

Going from RRIRERPPRLPRPRPRPPAHPRP to RRIRARPPRLPRPRPRPIHLPRP, the “shrunken log2 fold change” value falls from 0.269 to -0.633.

Going from RRIRDRPPRLPRPRPRPYQTPRP to RRIRLRPPRLPRPRPRPDLTPRP, the “shrunken log2 fold change” value rises from -0.0929 to 0.169.

Going from RRIRERPPRLPRPRPRPRSCPRP to RRIRMRPPRLPRPRPRPGDSPRP, the “shrunken log2 fold change” value rises from 0.0568 to 0.557.

Compared with RRIRFRPPRLPRPRPRPYMTPRP, RRIRQRPPRLPRPRPRPWCFPRP is higher in “shrunken log2 fold change” value: -0.49 for the first, -0.263 for the second.

Going from RRIRFRPPRLPRPRPRPGKAPRP to RRIRYRPPRLPRPRPRPHHHPRP, the “shrunken log2 fold change” value falls from 0.0429 to -1.09.

RRIRNRPPRLPRPRPRPTKAPRP and RRIRYRPPRLPRPRPRPPVWPRP are within 0.2 log units of each other in “shrunken log2 fold change” value: -0.00132 for the first, 0.0256 for the second.

RRIRIRPPRLPRPRPRPCNFPRP and RRIRKRPPRLPRPRPRPKMVPRP are within 0.2 log units of each other in “shrunken log2 fold change” value: -0.061 for the first, -0.031 for the second.

RRIRDRPPRLPRPRPRPFGIPRP and RRIRKRPPRLPRPRPRPVFTPRP are within 0.2 log units of each other in “shrunken log2 fold change” value: 0.0183 for the first, -0.0937 for the second.

RRIRHRPPRLPRPRPRPMEAPRP and RRIRFRPPRLPRPRPRPQGCPRP are within 0.2 log units of each other in “shrunken log2 fold change” value: -0.0935 for the first, -0.13 for the second.

Going from RRIRWRPPRLPRPRPRPVANPRP to RRIRYRPPRLPRPRPRPTKFPRP, the “shrunken log2 fold change” value falls from 0.0636 to -0.316.

Going from RRIRYRPPRLPRPRPRPDPWPRP to RRIRYRPPRLPRPRPRPHHDPRP, the “shrunken log2 fold change” value falls from -0.26 to -0.917.

First: RRIRQRPPRLPRPRPRPRFSPRP
Second: RRIRNRPPRLPRPRPRPPQTPRP
The “shrunken log2 fold change” value of the first is lower: 0.0453 for the first, 0.424 for the second.
